Assay results taken from a protein production outcome set (Wang et al. 2014).

Assay: label from the status in PepcDB records

Sequence: MTDSKYISIKGARVNNLKNIDVNIPRNKLVVITGLSGSGKSSLAFDTLYAEGQRRYVESLSSYARQFLGRMSKPECDFIKGIPPAIAIEQKVNSRNPRSTVGTSTEIYEYLRLLYARVGKTYSPVSGEEVKKHSIEDIVNCMLSYPEGTRYTVLTQIYLHDGRTLEQQLEIDRKQGFNRLEVNGEMVRIDEYAAGKEDVVYLLVDRMTAAKSKDAISRLTDSAETAMYEGDGMCMLRFYQPDGTTRLHTFSTKFEADGMTFEEPNDQMFSFNSPIGACPVCEGFGKVIGIDEHLVVPNRSLSVYDGAIVCWRGEKMGEWREELIHNAEKFNFPIFTPYYELTDEQRRVLWEGNQYFHGINDFFKMLEENQYKIQYRVMLARYRGKTLCPKCHGTRLKPEAGYVRVGGKNISELVDLPITELQKFFDSLTLNEHDQAVARRILTEINSRIRFLIDVGLGYLTLNRLSNSLSGGESQRINLATSLGSSLVGSLYILDEPSIGLHSRDTDRLVHVLRQLQQLGNTVVVVEHDEEIIRAADYIIDIGPNAGRLGGQVVYEGDMKDLKKGSNSYTVKYLLGEETIPVPEHRRPWNNYIEIKGARENNLKGVDARFPLNVMTVVTGVSGSGKSTLVRDIFYRALKRELDECSERPGEFVSIEGDLRNLRNVEFVDQNPIGKSSRSNPVTYIKAYDEIRKLWADQPLAKQMGYTAGHFSFNNEGGRCEECKGDGTITVEMQFMADLVLECESCHGKRFKADTLEVKFQDKNIYDILEMTVNQAIEFFTEHGQKKVVKKLIPLQDVGLGYIKLGQSSSTLSGGENQRVKLAYYLSQEKADPTLFIFDEPTTGLHFHDIRKLLDAFDALIRRGHSIVIIEHNMDVIKCADYVIDLGPEGGDKGGNIVATGTPEEVAACAASYTGQFLQEKLNHL
- protein production: failed

Sequence: MQRDVSSCNTYNYGDALYWDARYVQDALSFDWYQCYSSLRPFVRSFVSTSSRVLMVGCGNSLMSEDMVKDGYEDIMNVDISSVAIEMMQTKYASVPQLKYMQMDVRDMSYFEDDSFDTIIDKGTLDSLMCGSDALLSASRMLGEVSRLIKPGGTYFLITYGDPKVRMPHLTRSAYNWKISLYIIPRPGFKRPESCSSSAKSCMEAIPITSEGMLPHDYVLEDPDSHFIYICKKKDEDEEAQLPSYPLMEDVL
- protein production: failed

Sequence: MLQKPVQLLLWVAICLLVLLTVYVFFMLDMLWSPFWLVIKTIFIPLIISIFISYLLLPVTEWLHGKGLPRTLSILVIYVLFFGGIGWALYKGVPVLIVQLTDLSENIPMFAETYNGLLLHVHNHTDDWPDGMHHRIDKMIRQTEAFFAGTIEGAISGIRNVLDYFLIAATIPFLVFYMVKDIELMKKTVWYLTPKSWRKRGSAFLRDVDDSLGDYIRGQLLVCLILGVIAGISFWVFGLPYPLILGLISGVTNVIPYFGPFIGAVPALLIAMTISVKAVLVVVITVFILQFMEGNILSPFIVGRSLKMHPVVIMLALLAGGELAGIVGMILAVPATAVLKVMMIHFLRMRTEH
- protein production: not failed

Sequence: MTTPTPIRMLILEDSEDDLLLLLREVRRGGIDPAYERADSAAGLRRALDAGEWDVIVSDYNMPQFGALPALDIVKERGLDVPFIIVSGKIGEDLAVAAMKAGAHDYLMKGNLSRLVPAIERELREADERRRRRQAEEAMHAQFNQISTIFDSLNALVYVVDMNSYELLYLNKFGAQLFGEAWEGRTCHDVLHGGRSTPCDFCTNDKLIMDGKALPPYIWEYQNSISSRWYQCIDKAIRWTDGRMVRMEIAIDITERKEMERMKDEMISAVSHEMHTPLTAMMGFTEFLLENEVDRDLQKNYLKTIYRETERLNELITNFLQLQRLKASMVKFRITPVAVGLLVADVVSLYAAASKKHRIVVECPPDLPPVRGNEEQLYQAISNLVSNAIKYSPDGGDVTIGASAAADIVTLWVRDQGIGISPEFQEKIFERFFRVDNSDRRKVGGAGLGLTLVREIVATHGGRSWVESSPGKGSTFFISLPAMT
- protein production: failed

Sequence: MGYNTIPAGKDLPNDIYVAIEIPANASPIKYEIDKDMDALLVDRFMATPMFYPANYGYINNTLADDGDALDVLVITPYPVAPGSVIRARPVGVLKMSDEAGGDEKLLAVPHEKLTQLYNDIHDIDDVPQLLKDQIVHFFEHYKDLEKGKWVKVEGWENADAARAAIVKSAAAYKG
- protein production: not failed

Sequence: MQINLSDLHLLRPLWLLLIIPGALLPWLWQRRHDLLARLRGTIAPHLLTHLLVTPQDSQRLRPVHLLSALLVLGALAAAGPTWEQDRPDFLHNRAPLIIALDLSPSMNASDLPPSRLEAAKHKLQQLVQQRRGARTGLIAYAGSAHLVLPASDDPALLDSFIQALGSDLIQRPGKDVLGVIRQAQRLLQAEHSPGSLLLISDGADTSQLAAIKQQLAGSPLQVLILAAGSSDGGIIRDASGQPLTDSDGRPQLGRFDSAALKQLAAASDAPLGSLTLNDDDLDWVQLHAQQHFTAASAPDRQLQWKDAGYWLCWPLLLLAFCCVRRGWSLNWLGALLLGLGLSLQAPTARANTLADAFFSADQQGRWAFEHGHYPAAAALFTDPYWKGIAAYKAADFDLALASFARLDSAAAYFYLGNIHVRRFKFDEAIAAYQQALKLQPRFAEASANLALAQALKKDTESAQQNAPEVKPDAIKFDKPAGKGQNKKVETQEAASDELWLQNLSTSPAAFLRQKFSLQDLDNTTPQVTP
- protein production: failed

Sequence: MGGSNMKLDFSVAVHSILYLDAHRDSKVASRELAQSLHLNPVMIRNILSVLHKHGYLTGTVGKNGGYQLDLALADMNLGDLYDLTIPPTISYARFITGPSKTDEQADQSPIAANISETLTDLFTVADRQYRAYYHQFTMADLQADLNHHGTFLQHEQDSES
- protein production: not failed

Sequence: MNITGIIAEYNPMHNGHIHHLEKTKEICKSDVILCVMSGDFVQRGEPAIIDKWSRAYAALSSGVDLVIELP
- protein production: failed

Sequence: MQKEKAPIGLYFLLIAVMASWGFNVTMTKVLVSYFPTVTMTSFRIFTAAITVIIILFITKKLRLPTKREFGLIFLASIFNIVIHHFFLSNGLKLTTGTNAGLILGSAPIVVAIFSVVFLRERIGAWRALGFLAGIFGVSLVVLSNGTGISGISLGDIDIFIAMASQAFSFIIIKKLAGSMDTGLMTGYMLFLGSVMLFALSRFMEPGGVSELVAVHSWKLWLLFVVSAVVATAFGNFVYNYAVGKIGPSRSAIFMNFNPLFSLIGALLFLGEAIKIPQLVGFVFIIIGVLLGSGALMDLIYERKKTKVRDPEKLLEKEV
- protein production: failed

Sequence: MEKPDINVAEAWEQYWNKTLVNATPVLWDANVERAVVVDLPRFQSFFDTELPLIDFACGNGTQTKFLSQFFPRVIGFDVSKTALEMASKENTAANISYRLLDGLVPEQAAQIHSEIGDANIYMRTGFHHIPVEKRELLAQSLRTLLGKQGVMYLIELGTGCIEFFNSLLEKYGKLPYELSLVMEHGIRPGIFTTEDIELYFPDFEILSQGESLFQSIHKLPDGNYATPPAFWAVIKRHLEHHHHHH
- protein production: not failed

Sequence: MASISNLIILLISFLIGWIILSIPVWLASKAVSRRSSFGNAMIVSLVSIVVYVVLSTFLHFIGAIIGIIIILLIIREIYNVGWGGAIVIGVLSLVIFVIIALILGALHLASLLI
- protein production: failed

Sequence: MSDVEDVPETQLEIDVSDGAGLEDEDDDDMEQITAQKVLEIIETAWINEMCAPEILPSQTDMLELMVSQVAHMEEQMRDLDKNDFRAVVHSMELERVRYIMASYLRCRLQKIETFTQHILNQEESREPDDKRLSPEETKFAQEFASNVDEYFHKVATQYMPNQQRGEAEQRIVTPNLMSHVFLKANVAVPAVIVGVDDEEVDMAAGSQHIIPYQLVADLIQNNQAQLI
- protein production: failed

Sequence: MLNIKRIKKKMNARNLFATAALLFTASTAFAQTGVQTNTPFGSGEDSIRCRQNISLFTSYAKTGNYKDAYDFWEKAYEECPASTKNIYIYGVKISEWRLQNEQDPAKRQQIIDKILKLYDDRVKYFGEDPKYGTDYIMASKISDYMQYMGDKTDYDKVYEWIKPTIDQHGENATPRALFYYAYSSLNKAIRNEAWHETYIKDYTFASQAMEKQLEVADEKGKEFIQPLKTQIDELFAQSGLADCNTLVKMYGDKLEENKTDTTFLKNMLGMFHASDCETHPLYFQANKYLFAVQPSAIAAMGLAKEAMEGNRYNEASDYLQKAIELSKSAKDRAACNYTLGLLAMKQGSYSTARSYCNKALAEDPAMGDALILIAQMYAATANTVFPGDAIKARCVYFLAVDKLQRAKNIDPSCAPRANRLISQYSRNFPSPADVFMHPDLEKGKSLFVGGWIGESTVIR
- protein production: failed

Sequence: ESRLDRILESGVLRVATTGDYKPFSYRTEEGGYAGFDVDMAQRLAESLGAKLVVVPTSWPNLMRDFADDRFDIAMSGISINLERQRQAYFSIPYLRDGKTPITLCSEEARFQTLEQIDQPGVTAIVNPGGTNEKFARANLKKARILVHPDNVTIFQQIVDGKADLMMTDAIEARLQSRLHPELCAVHPQQPFDFAEKAYLLPRDEAFKRYVDQWLHIAEQSGLLRQ
- protein production: failed
